# Assay: yeast display, Sf9 membrane polyspecificity reagent, FACS + sequencing; frameworks hold sequencing errors
# Procedure, shortened: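 In a synthetic yeast display library (Saccharomyces cerevisiae BJ5465), nanobody expression was induced with galactose for 36–48 hours. FACS gates were set low and high (top ~1%) using anti-HA fluorescence for expression and streptavidin fluorescence for binding of the Sf9 membrane reagent. Each polyreactivity label is drawn from the gate of origin.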
row,Sequence,polyreactivity (PSR sort gate)
1,QVQLVESGGGLVQAGGSLRLSCAASGSTFSVYAMGLYRQAPGKERELVPAITWSGGSTYYADSVKGRFTISRDNAKNTVYLQMNSLKPEDTAVYYCNAERWLATPTVPWYLYNYWGQGTQVTVSS,low polyreactivity
2,QVQLVESGGGLVQAGGSLRLSCAASGSTFSWNTMGWYRQAPGIERELVAAINSGGSTYYADSVKGRFTISRDNAKNSVYLQMNSLKPEDTAVYYCAADWRGSYLYGYYYWGQGTQVTVSS,low polyreactivity
3,QVQLVESGGGLVQAGGSLRLSCAASGSTFSWYAMGWYRQAPGKERELVASISFSGGDTSYADSVKGRFTISRDNAKNTVYLQMNSLKPEDTAVYYCGKEYKYETDTKFDYWGQGTQVTVSS,low polyreactivity
4,QVQLVESGGGLVQAGGSLRLSCAASGSTFSYNAMGWSRQAPGKERELVAAISSAISTNYADSVKGRFTISRDNAKNTVYLQLNSLKPDDTAVYYCNKVPDFVFLISYQLYYTKRLGYWGQGTQVNVSS,low polyreactivity
5,QVQLVESGGGLVQAGGSLRLSCAASGSTFSYNAMGWYRPAPGKERELVAAISGSGGTTYYADSVKGRFTISRDNAKNTVYLQMNSLKPEDTAVYYCNAYVRRTRDYDYWGQGTQVTVSS,high polyreactivity
6,QVQLVESGGGLVQAGGSLRLSCAASGSTFSYNAMGWYRQAPGKERELVAAINLRGGNTYYADSVKGRFTNSRDNAKNTVYLQMNSLKPEDTAVYYCARTRRHSQTFDYWGQGTQVIVSS,high polyreactivity
7,QVQLVESGGGLVQAGGSLRLSCAASGSTFSYNAMGWYRQAPGKERELVAAISGSGGTTYYSDSVKGRFTISRDNAKNTVYLQMNSLKPEDTAVYYCAARPFRSWRYDYWGQGTQVTVSS,low polyreactivity
8,QVQLVESGGGLVQAGGSLRLSCAASGSTFSYNAMGWYRQAPGKERELVAAISRGDVSTYYADSVKGRFTISRDNAKNTVYLQMNSLKPEDTAVYYCADYWYGSQYKWRYDYWGQGTQVTVSS,low polyreactivity
9,QVQLVESGGGLVQAGGSLRLSCAASGSTFSYNAMGWYRQAPGKERELVAAISRSGGSTYYADSVKGRFTISRDNAKNTVYLQIKSLKPEFTAVYYFAADSPYGYYEGDYWGQGTQVTVSS,low polyreactivity
10,QVQLVESGGGLVQAGGSLRLSCAASGSTFSYNAMGWYRQAPGKERELVAAITSGSSTNYADSVKGRFTISRDNAKNTVYLQMNSLKPEDTAVYYCAADGYQDKYYWLENWVGYWGQGTQVTVSS,low polyreactivity
11,QVQLVESGGGLVQAGGSLRLSCAASGSTFSYNAMGWYRQAPGKERELVATITTGGRTSYADSVKGRFTISRDNAKNTVYLQMNSLKPEDTAVYYCAAVGRFSSRPRVVYYGYDYWGQGTQVTVSS,low polyreactivity
12,QVQLVESGGGLVQAGGSLRLSCAASGSTFSYNAMGWYRQAPGKVRELVASINSRGGTTYYADSVKGRFTISRDNAKNTVYLQMNSLKPEDTAVYYCATDVYRLGEYDYWGQGTQVTVSS,low polyreactivity
13,QVQLVESGGGLVQAGGSLRLSCAASGSTFSYYAMGWYRQAPGKERDLVAAISTDGGSTYYADSVKGRFTISRDNAKNTVYLQMNSLKPEDTAVYYCAALVGYYQYVWDLTYTVVEYNYWGQGTQVNVSS,low polyreactivity
14,QVQLVESGGGLVQAGGSLRLSCAASGSTFSYYAMGWYRQAPGKERELVAAISSRGGSTYYADSVKGRFTISRDNAMNNVYLQMNSLKPEDTAVYFCNADHQFRSSVSGDHDFWGQGTQVTVSS,high polyreactivity
15,QVQLVESGGGLVQAGGSLRLSCAASGSTFSYYAMGWYRQAPGKERELVAAITYSVGSTYYADSVKGRFTISRDNAKNTVYLQMNSLKPEDTAVYYCNKRYYYSRANYPYDYWGQGTQVTVSS,low polyreactivity
16,QVQLVESGGGLVQAGGSLRLSCAASGSTFSYYTMGWYRQAPGKERELVAAISFSGGSTYYADSVKGRFTISRDNAKNTVYLQMNSLKPEDTAVYYCAAKGYVGRYDYWGQGTQVTVSS,high polyreactivity
17,QVQLVESGGGLVQAGGSLRLSCAASGSTFTANAMGWYRQAPGKERELVASISARDGSTYADSVKGRFTISRDNAKKTVYLQMNSLKPEDTAVYYCNAAYFHIFPYDYDYWGQGTQVTVSS,low polyreactivity
18,QVQLVESGGGLVQAGGSLRLSCAASGSTFTDYDMGWYRQAPGKERELVAAITSGGSTNYADSVKGRCTISRDNAKNTVYLQMNRLKPEDTAVYYWAAADADSKYDYWGQGTQVTVSS,low polyreactivity
19,QVQLVESGGGLVQAGGSLRLSCAASGSTFTDYDMGWYRQAPGKERELVAAITSGGSTNYADSVKGRITISRDNAKNTVYLQMNSLKPEDTAVYYCAAADADRKYDYWGQGTQVTVSS,low polyreactivity
20,QVQLVESGGGLVQAGGSLRLSCAASGSTFTDYDMGWYRQAPGTERELVAAITSGCSTNYADSVKGRFTISRDNAKNTVYLQMNSLKPEDTAVYYCAAADADRKYDYWGQGTQVTVTS,low polyreactivity
21,QVQLVESGGGLVQAGGSLRLSCAASGSTFTEYAMGWYRQAPGKERELVAAITNSGSSTNYEDSVKGRFTISRDNAKNTVYLQMNSLKPEDTAVYYCNASSYPWEYYYLYYGYDYWGQGTQVTVSS,low polyreactivity
22,QVQLVESGGGLVQAGGSLRLSCAASGSTFTFYAMGSYRQAPGKERELGAAINGRGGSTYYADSVKGRFTISRDNANNTVYLQMNSLKPEDTADYYCATRLYYSVRYNMGYWGQGTQVTVSS,high polyreactivity
23,QVQLVESGGGLVQAGGSLRLSCAASGSTFTGNAMGWYRQAPGKERELVAAITDRGGSTYADSVKGRFTISRDNAKNTVYLQMNSLKPEDTAVYYCATRRDLHDRYEYDYWGQGTQVTVSS,low polyreactivity
24,QVQLVESGGGLVQAGGSLRLSCAASGSTFTGNAMGWYRQAPGKERELVASINGSSGSTYYADSVKGRFTISRDNAKNTVYLQMNSLKPEDTAVYYCAKDSFLHFPLVGWVGLEYWGQGTQVTVSS,low polyreactivity
25,QVQLVESGGGLVQAGGSLRLSCAASGSTFTGNAMGWYRQAPGKERELVASISTGGSTNYADSVKGRFTISRDNAKNTVYLQMNSLKPEDTAVYYCATDYCFKDSVVDFDYWGQGTQVTVSS,low polyreactivity
26,QVQLVESGGGLVQAGGSLRLSCAASGSTFTGYAMAWYRQAPGKERELVAAISSDGGSTYYADSVKGRFTMSRDNAKNTVYLQMNSLKPEDTAVYYCAALVYVSGYGYYYWGQGTQVTVSS,high polyreactivity
27,QVQLVESGGGLVQAGGSLRLSCAASGSTFTGYAMGWYRPAPGKESELVAAISISGGRTFYADSVKGRFTISRDNAKNTVYLQMNSLKPEDTSVYYCAVYRRGGVEAFLYWGQGTQVTVSS,high polyreactivity
28,QVQLVESGGGLVQAGGSLRLSCAASGSTFTGYAMGWYRQAPGKERELVAAISRSGGSTYYADSVKGRFTISRDNAKNTVYLQMNSLKPEDTAVYYCYVDPSARRYVYWGQGTQVTVSS,high polyreactivity
29,QVQLVESGGGLVQAGGSLRLSCAASGSTFTGYAMGWYRQAPGKERELVAAISRSVGRTYYADSVKGRFTISRDNAKNTVYLQMNSLKPEETAVYYCAADVFLTGSRNYYWGQGTQVTVSS,high polyreactivity
30,QVQLVESGGGLVQAGGSLRLSCAASGSTFTGYTKGWYRQAPGKERELVAAITYRGGSTYYADSVKGRFTISRDNAKNTVYLQMNSLKPEDTAVYYCAAVPEYYEYSPYDYWGQGTQVTVSS,low polyreactivity

# — the nanobody polyreactivity screen of Harvey et al. (2022)
